According to article PMC4973710:

Target: CPR-DA: human cytochrome P450 reductase doubly labelled with Cy5 (donor) and Alexa 750 (acceptor) (human) (UniProt P16435)
Sequence of UniProt P16435 (P16435 61-677): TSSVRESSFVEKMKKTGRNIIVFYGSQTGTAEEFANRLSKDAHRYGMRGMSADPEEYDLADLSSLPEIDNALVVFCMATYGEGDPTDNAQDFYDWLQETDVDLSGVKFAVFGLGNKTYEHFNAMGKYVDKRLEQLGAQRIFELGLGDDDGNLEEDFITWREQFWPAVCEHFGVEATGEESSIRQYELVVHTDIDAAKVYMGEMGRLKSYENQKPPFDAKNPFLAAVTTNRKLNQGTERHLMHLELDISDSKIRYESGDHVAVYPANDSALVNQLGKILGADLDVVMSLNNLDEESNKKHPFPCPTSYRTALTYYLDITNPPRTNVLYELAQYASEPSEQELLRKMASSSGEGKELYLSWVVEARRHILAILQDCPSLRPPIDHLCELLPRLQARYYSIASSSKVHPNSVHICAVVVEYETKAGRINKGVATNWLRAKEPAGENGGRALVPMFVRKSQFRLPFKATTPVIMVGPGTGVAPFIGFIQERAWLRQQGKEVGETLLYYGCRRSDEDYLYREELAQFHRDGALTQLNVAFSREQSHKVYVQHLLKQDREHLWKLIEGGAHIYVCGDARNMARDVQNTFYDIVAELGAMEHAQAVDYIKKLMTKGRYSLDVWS

second-order rate constant of ferric cyt c reduction by equimolar NADPH-reduced CPR-DA, first kinetic phase (UV-Vis double-mixing stopped-flow): 1.01 µM⁻¹ s⁻¹
second-order rate constant of ferric cyt c reduction by equimolar NADPH-reduced CPR-DA, second kinetic phase (UV-Vis double-mixing stopped-flow): 0.34 µM⁻¹ s⁻¹
Substance: bovine heart cytochrome c (from UniProt P62894 1-105) (natural protein)
